This assay has as its target T1, GST-tagged full-length β-catenin (UniProt P35222 1-781).
T1 construct: β-catenin, full length; also called GST-β-catenin
T1 sequence (looked up): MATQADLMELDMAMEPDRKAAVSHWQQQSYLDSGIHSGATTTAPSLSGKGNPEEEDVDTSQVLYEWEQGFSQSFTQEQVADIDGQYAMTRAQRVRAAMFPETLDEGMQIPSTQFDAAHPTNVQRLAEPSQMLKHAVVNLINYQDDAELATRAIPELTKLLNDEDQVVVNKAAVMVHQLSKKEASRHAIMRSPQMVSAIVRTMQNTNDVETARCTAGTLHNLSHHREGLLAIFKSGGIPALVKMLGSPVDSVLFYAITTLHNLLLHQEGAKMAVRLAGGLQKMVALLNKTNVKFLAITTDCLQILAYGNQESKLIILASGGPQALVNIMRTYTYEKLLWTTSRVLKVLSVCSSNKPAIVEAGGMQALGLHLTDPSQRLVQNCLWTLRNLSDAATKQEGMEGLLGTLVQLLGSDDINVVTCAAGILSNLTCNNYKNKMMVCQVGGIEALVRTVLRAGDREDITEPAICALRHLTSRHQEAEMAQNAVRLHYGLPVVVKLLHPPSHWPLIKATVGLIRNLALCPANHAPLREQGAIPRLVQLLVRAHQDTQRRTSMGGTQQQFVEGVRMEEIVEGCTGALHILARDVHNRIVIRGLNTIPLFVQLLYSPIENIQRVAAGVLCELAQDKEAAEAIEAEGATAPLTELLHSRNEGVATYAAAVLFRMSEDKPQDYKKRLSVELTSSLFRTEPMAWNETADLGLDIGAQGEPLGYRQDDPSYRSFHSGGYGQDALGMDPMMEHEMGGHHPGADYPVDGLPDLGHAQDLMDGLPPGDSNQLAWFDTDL
The assay can be described thus: pull-down; purified GST-tagged full-length β-catenin incubated with purified His-tagged FAM83A, pulled down by GST beads, western blotting. As to conditions: both partners purified.

B1: His-tagged FAM83A (natural protein, UniProt Q86UY5 1-434, looked up)
chain: MSRSRHLGKIRKRLEDVKSQWVRPARADFSDNESARLATDALLDGGSEAYWRVLSQEGEVDFLSSVEAQYIQAQAREPPCPPDTLGGAEAGPKGLDSSSLQSGTYFPVASEGSEPALLHSWASAEKPYLKEKSSATVYFQTVKHNNIRDLVRRCITRTSQVLVILMDVFTDVEIFCDILEAANKRGVFVCVLLDQGGVKLFQEMCDKVQISDSHLKNISIRSVEGEIYCAKSGRKFAGQIREKFIISDWRFVLSGSYSFTWLCGHVHRNILSKFTGQAVELFDEEFRHLYASSKPVMGLKSPRLVAPVPPGAAPANGRLSSSSGSASDRTSSNPFSGRSAGSHPGTRSVSASSGPCSPAAPHPPPPPRFQPHQGPWGAPSPQAHLSPRPHDGPPAAVYSNLGAYRPTRLQLEQLGLVPRLTPTWRPFLQASPHF
notes: FAM83A; also called His-FAM83A
With B1, the binding result is “binds”.

The values above are taken from article PMC9935901 (Signal Transduction and Targeted Therapy, 2023).
